In patent US20250154262A1:

Legend:
hFcγRIIIa-V158 (human) [1] = molecular target: hFcγRIIIa-V158 (human) (UniProt P08637); experiment: SPR (Carterra LSA), protein AG capture
hFcγRIIIa-V158 (human) [2] = molecular target: hFcγRIIIa-V158 (human) (UniProt P08637); experiment: SPR, further study

Sequence of hFcγRIIIa-V158 (human) (P08637 17-208 F176V limits assumed): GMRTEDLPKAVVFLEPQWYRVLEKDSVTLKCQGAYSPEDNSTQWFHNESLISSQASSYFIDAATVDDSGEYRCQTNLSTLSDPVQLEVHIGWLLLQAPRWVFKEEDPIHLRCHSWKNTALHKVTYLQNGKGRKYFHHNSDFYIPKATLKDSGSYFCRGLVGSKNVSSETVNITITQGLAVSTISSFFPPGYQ

Row | Substance | Fold-change relative to WT (hFcγRIIIa-V158 (human) [1]) [fold] | Kd (hFcγRIIIa-V158 (human) [1]) [nM] | koff (hFcγRIIIa-V158 (human) [1]) [s⁻¹] | kon (hFcγRIIIa-V158 (human) [1]) [M⁻¹ s⁻¹] | Fold Change vs. WT (hFcγRIIIa-V158 (human) [2]) [fold] | Kd (hFcγRIIIa-V158 (human) [2]) [nM] | koff (hFcγRIIIa-V158 (human) [2]) [s⁻¹] | kon (hFcγRIIIa-V158 (human) [2]) [M⁻¹ s⁻¹]
1 | A330Y_D376V_Y373W (antibody) | 2.4 | 123 | 0.0786 | 637000 | – | – | – | –
2 | A330Y_S267A_D376V_S298A (antibody) | – | 67.9 | – | – | – | – | – | –
3 | H268D, A330F, S298A (antibody) | – | – | – | – | 6 | 80.1 | 0.0311 | 389000
4 | H268D, L314K (antibody) | – | – | – | – | 3 | 159 | 0.0516 | 324000
5 | H268D, L314M, S298A (antibody) | – | – | – | – | – | 85.1 | – | –
6 | H268D, L314N (antibody) | – | – | – | – | 4.9 | 96.5 | 0.0452 | 471000
7 | H268D, L314S (antibody) | – | – | – | – | 3.1 | 152 | 0.0434 | 286000
8 | H268D, L314T, S298A (antibody) | – | – | – | – | 10.2 | 46.8 | 0.0217 | 465000
9 | H268D_A330Y_A339T_Y373W (antibody) | 4.4 | 66.3 | 0.019 | 287000 | – | – | – | –
10 | H268D_A330Y_L251W (antibody) | 2 | 149 | 0.026 | 174000 | – | – | – | –
11 | H268D_A330Y_L251W_D376V (antibody) | 4.4 | 66.2 | 0.038 | 574000 | – | – | – | –
12 | H268D_A330Y_L314K (antibody) | 5.9 | 49.1 | 0.0189 | 385000 | – | – | – | –
13 | H268D_A330Y_Y373W (antibody) | 4.1 | 71.7 | 0.025 | 349000 | – | – | – | –
14 | H268D_A339T_S298A (antibody) | 6.4 | 45.4 | 0.0126 | 278000 | – | – | – | –
15 | H268D_L251F (antibody) | 3.9 | 73.9 | 0.0243 | 328000 | – | – | – | –
16 | H268D_L251F_L314G (antibody) | 4.4 | 65.8 | 0.0253 | 385000 | – | – | – | –
17 | H268D_L251F_L314K (antibody) | 4.4 | 65.6 | 0.024 | 366000 | – | – | – | –
18 | H268D_L251F_L314M (antibody) | 3.3 | 88.3 | 0.025 | 283000 | – | – | – | –
19 | H268D_L251F_L314M_S298A (antibody) | 7.9 | 36.7 | 0.0125 | 340000 | – | – | – | –

Row | Substance | Fold-change relative to WT (hFcγRIIIa-V158 (human) [1]) [fold] | Kd (hFcγRIIIa-V158 (human) [1]) [nM] | koff (hFcγRIIIa-V158 (human) [1]) [s⁻¹] | kon (hFcγRIIIa-V158 (human) [1]) [M⁻¹ s⁻¹] | Fold Change vs. WT (hFcγRIIIa-V158 (human) [2]) [fold] | Kd (hFcγRIIIa-V158 (human) [2]) [nM] | koff (hFcγRIIIa-V158 (human) [2]) [s⁻¹] | kon (hFcγRIIIa-V158 (human) [2]) [M⁻¹ s⁻¹]
20 | H268D_L251F_L314M_Y373W (antibody) | 3.7 | 79.5 | 0.023 | 289000 | – | – | – | –
21 | H268D_L251F_L314N (antibody) | 3.9 | 74.9 | 0.0231 | 309000 | – | – | – | –
22 | H268D_L251F_L314S (antibody) | 4 | 73 | 0.027 | 370000 | – | – | – | –
23 | H268D_L251F_L314T (antibody) | – | 68.2 | – | – | – | – | – | –
24 | H268D_L251F_L314V (antibody) | 3.4 | 84.4 | 0.0225 | 267000 | – | – | – | –
25 | H268D_L251F_L314W (antibody) | 1.8 | 163 | 0.0241 | 148000 | – | – | – | –
26 | H268D_L251F_Y373W (antibody) | 3.3 | 88.2 | 0.0228 | 258000 | – | – | – | –
27 | H268D_L251I_A330F_S298A (antibody) | – | 32.1 | – | – | – | – | – | –
28 | H268D_L251Q (antibody) | 2.7 | 107 | 0.047 | 438000 | – | – | – | –
29 | H268D_L251Q_L314E (antibody) | 21.9 | 13.3 | 0.0152 | 1.15e+06 | – | – | – | –
30 | H268D_L251Q_L314G (antibody) | 6.3 | 45.9 | 0.0246 | 536000 | – | – | – | –
31 | H268D_L251Q_L314M (antibody) | 3.1 | 93.9 | 0.03 | 319000 | – | – | – | –
32 | H268D_L251Q_L314M_Y373W (antibody) | – | 72.8 | – | – | – | – | – | –
33 | H268D_L251Q_Y373W (antibody) | 4.1 | 70.2 | 0.0292 | 416000 | – | – | – | –
34 | H268D_L251Q_Y373W_S298A (antibody) | – | 25.2 | – | – | – | – | – | –
35 | H268D_L251W (antibody) | 4 | 72.8 | 0.0682 | 936000 | – | – | – | –
36 | H268D_L251W_A330Y_Y373W (antibody) | 3.9 | 74.6 | 0.044 | 590000 | – | – | – | –
37 | H268D_L251W_L314K (antibody) | 3.3 | 87.8 | 0.0476 | 542000 | – | – | – | –
38 | H268D_L251W_L314M (antibody) | 1.5 | 188 | 0.0564 | 300000 | – | – | – | –
